Laboratory results reported in patent US20060070134.

Biological target: Human E1 (ubiquitin-activating enzyme) (UniProt P22314)
Chain of UniProt P22314 (P22314 whole entry): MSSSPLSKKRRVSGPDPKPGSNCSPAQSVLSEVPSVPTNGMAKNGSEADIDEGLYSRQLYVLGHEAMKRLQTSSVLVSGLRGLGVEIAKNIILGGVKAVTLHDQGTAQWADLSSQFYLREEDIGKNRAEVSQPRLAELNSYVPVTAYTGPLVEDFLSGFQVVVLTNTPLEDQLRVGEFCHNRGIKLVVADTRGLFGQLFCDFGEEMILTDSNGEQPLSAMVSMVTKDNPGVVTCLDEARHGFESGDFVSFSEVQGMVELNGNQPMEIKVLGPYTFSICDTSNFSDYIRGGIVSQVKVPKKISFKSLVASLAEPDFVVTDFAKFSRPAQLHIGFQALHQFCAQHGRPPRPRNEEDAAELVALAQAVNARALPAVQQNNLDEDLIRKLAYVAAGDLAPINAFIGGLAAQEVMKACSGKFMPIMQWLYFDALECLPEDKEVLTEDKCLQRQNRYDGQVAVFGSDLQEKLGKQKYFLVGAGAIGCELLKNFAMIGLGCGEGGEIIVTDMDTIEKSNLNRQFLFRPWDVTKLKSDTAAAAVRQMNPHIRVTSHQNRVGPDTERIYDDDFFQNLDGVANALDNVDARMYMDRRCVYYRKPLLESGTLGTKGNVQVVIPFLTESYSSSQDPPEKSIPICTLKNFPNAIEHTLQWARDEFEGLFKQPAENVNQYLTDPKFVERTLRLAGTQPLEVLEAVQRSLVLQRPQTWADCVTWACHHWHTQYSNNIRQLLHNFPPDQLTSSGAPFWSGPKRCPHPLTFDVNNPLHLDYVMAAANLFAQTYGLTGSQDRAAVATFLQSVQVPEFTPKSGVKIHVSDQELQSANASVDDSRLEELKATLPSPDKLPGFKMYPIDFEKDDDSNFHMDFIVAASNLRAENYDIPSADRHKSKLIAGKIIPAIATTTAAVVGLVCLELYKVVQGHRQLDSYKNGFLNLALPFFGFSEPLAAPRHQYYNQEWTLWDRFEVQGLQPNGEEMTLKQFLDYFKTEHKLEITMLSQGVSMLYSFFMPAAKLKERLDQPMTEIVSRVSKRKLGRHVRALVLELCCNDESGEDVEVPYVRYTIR

FLJ11011v2
ubiquitinylation reaction, anti-Ub western blot: FLJ11011v2 is efficiently ubiquitinylated in this assay
